Here are results for ten molecules from patent US20220098306A1 (published 2022).

First the molecules themselves.
B1: XENP34732 (bispecific antibody)
heavy: EVQLLESGGGLVQPGGSLRLSCAASGFTFSNYYMAWVRQAPGKGLEWVSSISTGGGSTYYRDSVKGRFTISRDNSKSTLYLQMNSLRAEDTAVYYCTTDLSAIAATPFAYWGQGTLVTVSSASTKGPSVFPLAPSSKSTSGGTAALGCLVKDYFPEPVTVSWNSGALTSGVHTFPAVLQSSGLYSLSSVVTVPSSSLGTQTYICNVNHKPSDTKVDKKVEPKSCDKTHTCPPCPAPPVAGPSVFLFPPKPKDTLMISRTPEVTCVVVDVKHEDPEVKFNWYVDGVEVHNAKTKPREEEYNSTYRVVSVLTVLHQDWLNGKEYKCKVSNKALPAPIEKTISKAKGQPREPQVYTLPPSREEMTKNQVSLTCDVSGFYPSDIAVEWESDGQPENNYKTTPPVLDSDGSFFLYSKLTVDKSRWEQGDVFSCSVLHEALHSHYTQKSLSLSPGK
scFv-Fc: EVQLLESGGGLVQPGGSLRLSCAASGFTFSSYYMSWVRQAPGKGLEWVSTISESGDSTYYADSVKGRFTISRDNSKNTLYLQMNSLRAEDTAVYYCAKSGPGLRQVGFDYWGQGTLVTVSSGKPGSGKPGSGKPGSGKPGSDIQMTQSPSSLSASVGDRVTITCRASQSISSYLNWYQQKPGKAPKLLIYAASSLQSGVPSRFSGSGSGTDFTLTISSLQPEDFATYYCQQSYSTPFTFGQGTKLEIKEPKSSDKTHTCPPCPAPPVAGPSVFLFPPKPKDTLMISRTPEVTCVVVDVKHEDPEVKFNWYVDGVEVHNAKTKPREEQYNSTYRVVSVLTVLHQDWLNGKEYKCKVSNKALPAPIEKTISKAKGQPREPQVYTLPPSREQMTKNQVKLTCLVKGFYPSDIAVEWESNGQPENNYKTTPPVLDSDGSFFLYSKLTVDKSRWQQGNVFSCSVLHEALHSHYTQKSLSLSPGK
light: DIQMTQSPSSLSASVGDRVTITCRASQNIYTSLAWYQQKPGKAPKLLIYNAHSLQTGIPSRFSGSGSGADFTLTISSLQPEDFATYFCQQYYSGLTFGSGTKLEIKRTVAAPSVFIFPPSDEQLKSGTASVVCLLNNFYPREAKVQWKVDNALQSGNSQESVTEQDSKDSTYSLSSTLTLSKADYEKHKVYACEVTHQGLSSPVTKSFNRGEC
B2: XENP34398 (bispecific antibody)
heavy 1: EVQLLESGGGLVQPGGSLRLSCAASGFTFSSYYMSWVRQAPGKGLEWVSTISESGDSTYYADSVKGRFTISRDNSKNTLYLQMNSLRAEDTAVYYCAKSGPGLRQVGFDYWGQGTLVTVSSASTKGPSVFPLAPSSKSTSGGTAALGCLVKDYFPEPVTVSWNSGALTSGVHTFPAVLQSSGLYSLSSVVTVPSSSLGTQTYICNVNHKPSDTKVDKKVEPKSCDKTHTCPPCPAPPVAGPSVFLFPPKPKDTLMISRTPEVTCVVVDVKHEDPEVKFNWYVDGVEVHNAKTKPREEEYNSTYRVVSVLTVLHQDWLNGKEYKCKVSNKALPAPIEKTISKAKGQPREPQVYTLPPSREEMTKNQVSLTCDVSGFYPSDIAVEWESDGQPENNYKTTPPVLDSDGSFFLYSKLTVDKSRWEQGDVFSCSVLHEALHSHYTQKSLSLSPGK
heavy 2: QVQLVQSGAEVKKPGASVKVSCKASGYIFTNNYMHWVRQAPGQGLEWMGIISPSVGRTAYAQKFQGRVTMTRDTSTSTVYMELSSLRSEDTAVYYCARGGGSSPRLDYWGQGTLVTVSSASTKGPSVFPLAPSSKSTSGGTAALGCLVKDYFPEPVTVSWNSGALTSGVHTFPAVLQSSGLYSLSSVVTVPSSSLGTQTYICNVNHKPSNTKVDKKVEPKSCGKPGSGKPGSQVQLVQSGAEVKKPGASVKVSCKASGYIFTNNYMHWVRQAPGQGLEWMGIISPSVGRTAYAQKFQGRVTMTRDTSTSTVYMELSSLRSEDTAVYYCARGGGSSPRLDYWGQGTLVTVSSASTKGPSVFPLAPSSKSTSGGTAALGCLVKDYFPEPVTVSWNSGALTSGVHTFPAVLQSSGLYSLSSVVTVPSSSLGTQTYICNVNHKPSNTKVDKKVEPKSCDKTHTCPPCPAPPVAGPSVFLFPPKPKDTLMISRTPEVTCVVVDVKHEDPEVKFNWYVDGVEVHNAKTKPREEQYNSTYRVVSVLTVLHQDWLNGKEYKCKVSNKALPAPIEKTISKAKGQPREPQVYTLPPSREQMTKNQVKLTCLVKGFYPSDIAVEWESNGQPENNYKTTPPVLDSDGSFFLYSKLTVDKSRWQQGNVFSCSVLHEALHSHYTQKSLSLSPGK
light: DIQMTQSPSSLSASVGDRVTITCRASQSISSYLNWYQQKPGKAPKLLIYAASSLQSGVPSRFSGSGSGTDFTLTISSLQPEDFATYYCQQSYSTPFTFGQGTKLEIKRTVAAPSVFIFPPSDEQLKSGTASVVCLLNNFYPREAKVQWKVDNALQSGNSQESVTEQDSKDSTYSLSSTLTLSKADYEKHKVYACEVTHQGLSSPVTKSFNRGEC
B3: XENP35153 (bispecific antibody)
heavy: EVQLLESGGGLVQPGGSLRLSCAVSGFSLSSYGVIWVRQAPGKGLEYVSWVSSGGSTNYASSVKGRFTISRDTSKNTVYLQMNSLRAEDTAVYFCARGATNSGTDIWGPGTLVTVSSASTKGPSVFPLAPSSKSTSGGTAALGCLVKDYFPEPVTVSWNSGALTSGVHTFPAVLQSSGLYSLSSVVTVPSSSLGTQTYICNVNHKPSDTKVDKKVEPKSCDKTHTCPPCPAPPVAGPSVFLFPPKPKDTLMISRTPEVTCVVVDVKHEDPEVKFNWYVDGVEVHNAKTKPREEEYNSTYRVVSVLTVLHQDWLNGKEYKCKVSNKALPAPIEKTISKAKGQPREPQVYTLPPSREEMTKNQVSLTCDVSGFYPSDIAVEWESDGQPENNYKTTPPVLDSDGSFFLYSKLTVDKSRWEQGDVFSCSVLHEALHSHYTQKSLSLSPGK
scFv-Fc: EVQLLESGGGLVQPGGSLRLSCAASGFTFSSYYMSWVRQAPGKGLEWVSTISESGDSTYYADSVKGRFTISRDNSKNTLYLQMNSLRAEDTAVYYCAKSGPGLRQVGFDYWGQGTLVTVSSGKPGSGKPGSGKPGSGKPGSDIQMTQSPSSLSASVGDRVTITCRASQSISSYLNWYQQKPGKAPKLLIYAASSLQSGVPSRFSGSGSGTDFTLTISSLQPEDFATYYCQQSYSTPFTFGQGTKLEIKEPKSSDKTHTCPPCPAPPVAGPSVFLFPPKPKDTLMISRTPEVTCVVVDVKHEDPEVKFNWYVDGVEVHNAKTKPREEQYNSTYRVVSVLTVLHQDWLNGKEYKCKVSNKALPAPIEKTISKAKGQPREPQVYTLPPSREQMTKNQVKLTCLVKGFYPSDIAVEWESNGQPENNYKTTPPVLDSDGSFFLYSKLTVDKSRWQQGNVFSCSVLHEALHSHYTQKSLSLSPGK
light: DIVMTQSPSSLSASVGDRVTITCRASQSINSWLSWYQQKPGKPPKLLIYGASNLASGVPSRFKGSGSGTDFTLTISSLQPEDFATYYCQNNYGIIAAGATFGGGTKVEIKRTVAAPSVFIFPPSDEQLKSGTASVVCLLNNFYPREAKVQWKVDNALQSGNSQESVTEQDSKDSTYSLSSTLTLSKADYEKHKVYACEVTHQGLSSPVTKSFNRGEC
B4: H1.14_L1 (XENP31398) (antibody, V domains shown)
VH: EVQLLESGGGLVQPGGSLRLSCAASGFTFSSYYMSWVRQAPGKGLEWVSTISGSGDSTYYADSVKGRFTISRDNSKNTLYLQMNSLRAEDTAVYYCAKSGPGLRQVGFDYWGQGTLVTVSS
VL: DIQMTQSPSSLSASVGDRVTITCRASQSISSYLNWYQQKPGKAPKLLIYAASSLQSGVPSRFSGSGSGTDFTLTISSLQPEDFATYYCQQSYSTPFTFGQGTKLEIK
B5: 2E4A3_H1.3_1A7_L1 (antibody, V domains shown)
VH: QVQLVQSGAEVKKPGASVKVSCKASGYIFTNHYMHWVRQAPGQGLEWMGIISPSAGSTDYAQKFQGRVTMTRDTSTSTVYMELSSLRSEDTAVYYCARGGGSSPRLDYWGQGTLVTVSS
VL: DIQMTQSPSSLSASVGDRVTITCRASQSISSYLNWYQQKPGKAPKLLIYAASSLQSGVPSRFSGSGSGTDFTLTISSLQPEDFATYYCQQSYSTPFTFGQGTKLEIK
B6: 2E4A3_H1.22_1A7_L1 (antibody, V domains shown)
VH: B5 VH with H32N, A55V, S57R, D59A
VL: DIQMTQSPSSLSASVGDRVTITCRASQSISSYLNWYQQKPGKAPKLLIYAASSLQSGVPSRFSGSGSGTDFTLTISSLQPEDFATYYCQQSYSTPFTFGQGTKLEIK
B7: 2E4A3_H1.22_L1 (antibody, V domains shown)
VH: B5 VH with H32N, A55V, S57R, D59A
VL: not shown
B8: 38E2_H2_L1.1 (antibody, V domains shown)
VH: EVQLVESGGGLVKPGGSLRLSCAASGFSFSVGYYMCWVRQAPGKGLEWVSCIYVGSGSSGSTYYASVKGRFTISSDTAKTSVYLQMNSLRAEDTAVYFCARTAGSDWRLDLWGQGTLVTVSS
VL: DIVMTQSPSSLSASVGDRVTITCRASQSIANELSWYQQKPGKPPKLLIYRASTLTSGVPSRFKGSGSGTDFTLTISSLQPEDFATYYCQSTYNGRAIGFGGGTKVEIK
B9: 6A1_H1L1 (antibody, V domains shown)
VH: EVQLLESGGGLVQPGGSLRLSCAASGFTFSNYYMAWVRQAPGKGLEWVSSISTGGGSTYYRDSVKGRFTISRDNSKSTLYLQMNSLRAEDTAVYYCTTDLSAIAATPFAYWGQGTLVTVSS
VL: DIQMTQSPSSLSASVGDRVTITCRASQNIYTSLAWYQQKPGKAPKLLIYNAHSLQTGIPSRFSGSGSGADFTLTISSLQPEDFATYFCQQYYSGLTFGSGTKLEIK
B10: 3C4_H1_L1.1 (antibody, V domains shown)
VH: EVQLLESGGGLVQPGGSLRLSCAVSGFSLSSYGVIWVRQAPGKGLEYVSWVSSGGSTNYASSVKGRFTISRDTSKNTVYLQMNSLRAEDTAVYFCARGATNSGTDIWGPGTLVTVSS
VL: DIVMTQSPSSLSASVGDRVTITCRASQSINSWLSWYQQKPGKPPKLLIYGASNLASGVPSRFKGSGSGTDFTLTISSLQPEDFATYYCQNNYGIIAAGATFGGGTKVEIK

Where a chain is given by its changes, count along the chain named.

The target in one assay is T1, B7H3 (antigen of the affinity statements) (human, UniProt Q5ZPR3 29-466).
T1 chain: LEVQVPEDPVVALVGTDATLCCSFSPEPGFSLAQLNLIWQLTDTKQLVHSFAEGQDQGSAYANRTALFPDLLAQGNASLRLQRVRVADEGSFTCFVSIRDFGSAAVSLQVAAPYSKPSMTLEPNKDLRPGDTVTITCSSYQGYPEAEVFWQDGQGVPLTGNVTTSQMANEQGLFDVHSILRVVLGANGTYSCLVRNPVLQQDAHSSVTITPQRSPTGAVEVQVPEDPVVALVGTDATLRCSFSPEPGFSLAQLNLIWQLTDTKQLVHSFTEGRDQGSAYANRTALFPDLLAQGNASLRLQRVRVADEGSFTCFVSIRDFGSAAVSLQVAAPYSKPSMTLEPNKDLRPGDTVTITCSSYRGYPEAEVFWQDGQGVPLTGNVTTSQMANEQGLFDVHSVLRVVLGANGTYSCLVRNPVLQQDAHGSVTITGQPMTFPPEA
The experiment in a line: -; monovalent KD.
The term Kd denotes the concentration at which binding is half-saturated. Consider B1, for which the Kd turned out to be 8.1 nM. That is a single-digit nanomolar value.

Turning to B2, the Kd was 7.6 nM.

As for B3, the dissociation constant Kd came out at 0.5 nM.

Another assay has as its target T2, CD28 (antigen of the affinity determinations) (human, UniProt P10747 19-152). The experiment in a line: -; Fab, 2+1 CLC.
B4 registered a Kd of 62.8 nM.

The target in another assay is T3, cynomolgus B7H3.
T3 chain: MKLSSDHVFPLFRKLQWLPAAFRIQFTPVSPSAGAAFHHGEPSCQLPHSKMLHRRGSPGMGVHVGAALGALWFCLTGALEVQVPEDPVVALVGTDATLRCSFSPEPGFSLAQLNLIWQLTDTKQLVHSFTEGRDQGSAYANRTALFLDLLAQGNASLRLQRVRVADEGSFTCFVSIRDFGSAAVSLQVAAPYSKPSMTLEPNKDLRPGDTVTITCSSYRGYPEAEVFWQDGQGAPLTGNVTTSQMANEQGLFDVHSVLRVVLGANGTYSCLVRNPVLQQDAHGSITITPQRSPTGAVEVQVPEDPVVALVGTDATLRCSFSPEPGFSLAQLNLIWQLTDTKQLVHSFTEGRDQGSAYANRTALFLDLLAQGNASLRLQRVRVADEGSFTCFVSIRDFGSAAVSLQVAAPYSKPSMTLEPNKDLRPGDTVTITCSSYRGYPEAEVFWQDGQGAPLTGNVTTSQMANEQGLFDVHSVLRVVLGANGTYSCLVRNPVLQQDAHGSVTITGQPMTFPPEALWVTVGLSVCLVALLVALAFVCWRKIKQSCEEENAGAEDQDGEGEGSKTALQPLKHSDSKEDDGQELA
Assay: not given
For B5, binding was put at a Kd of 7 nM.

As to B6, the affinity, expressed as Kd, was 4.3 nM.

In the case of B7, binding was put at a Kd of 5.3 nM.

In turn, B8 had a Kd of 1.4 nM. This Kd lies about 3.8-fold lower than the previous one.

Turning to B9, the affinity, expressed as Kd, was 4.2 nM.

With B10, the affinity, expressed as Kd, was 27.2 nM.

The target of another assay is T1, B7H3 (antigen of the affinity …).
Assay: not given
The molecule B5 yielded a dissociation constant Kd of 12 nM.

B6 showed a dissociation constant (Kd) of 7.6 nM. This Kd is about 1.6-fold lower than that of the molecule before.

For B7, binding was characterised by a dissociation constant (Kd) of 6.1 nM.

B8 showed a Kd of 0.5 nM. Against the preceding molecule, the Kd is about 12-fold lower.

Consider B9, for which the dissociation constant (Kd) worked out at 8.1 nM.

As to B10, the Kd stood at 29.7 nM.

The next assay addresses T2, CD28 (antigen of the affinity …).
Assay: not given
The molecule B1 displayed an equilibrium dissociation constant (Kd) of 370 nM.

B2 returned a dissociation constant Kd of 63 nM.

For the molecule B3, the equilibrium dissociation constant (Kd) worked out at 360 nM.
